A protein production outcome set (Wang et al. 2014)

Assay: label from the status in PepcDB records
With “MLALPTTFAKSPIDNEASIEETTPKWSVNSPQGNFTTADIDVRSGTWMNVDLNPDGKTIIFDLLGDIYTMPASGGEATPLMTDIAWQMQPRFSPDGKYIAFTSDEDGGDNLWIMKADGSEAKAVTTETFRLLNSPAWSPDGNYIVGRKHYTGTRSLGAGEVWMYHKSGGNGVMLTKRPNEQKDLGEPAFSHDGKYVYFSQDATPGKSFHYSKDSEKGIYKIKRLELETGEIKVVVSGKGGAIRPTLSPDGKYLAFISRDDFQSNLYLYNLKNGEQSKVYDGLDRDMQETWAIHGVYPTMAWTPDSEGLVFWSGGKINKLSLDSKKAKVIDFHVKTTKKIQTAVRFPQDLDQKSFDTKMLRDVKVSPNGKLAVYESMGHLYTKSLPKGKPKRLTKQKSQFELNPSFSRDGKKIVYVSWDDKNLGQVRVVSSRGGKGKTITREPGKYVEPSFSPDGKAVVYRKVTGGFITDPTWGLNPGVYAVSVKGGKAKLVTEEGVQPHFGARNDRIYVTRDGETPHISRIDIDGQHDTKLYQGKFASEYRVSPDGNYLAFAERFKVFVTPFVERGDVIDIGPKAENLPVEQLSMRAGEGINWNGKSNELYWSLGADLYQASIKGLFDITAKTTDENDDGSEPETSASTVVNDINVINLSYKQKVDIPSGHVAFVGGKVITMEGEQVIDNGVVLVEGNKIKAVGTKGQVNIPSDATIIDITGKTVMPGLIDAHAHGPQGSNEIIPQQNWKNYAGLALGVTTIHDPSNDTTEFFAASEMQKAGKIVAARLFSTGTILYGATIPGYTSHVDSLDDAKFHVERLKAAGAFSVKSYNQPRRNQRQQFIQAARELEMMVVPEGGSLLQHNLTMVVDGHTTLEHSISTAKIYADIKQLWSQSDMAYTPTMGVAYGGISGENYWYDTTNVWEHPRLSQYVPSEFLDPRSMRRPKAPLHHYNHFNVAKVAKEMQDLGVVVNAGGHGQREGLAMHWEMWMMAQGGMSPLQAIRTATISPAKSLGLDKDLGSLTVGKLADMIVIDGDITQDIRLSDKVTHTMINGRLYNADTMNEIGNYDNKREKFYFENK” the protein production was “failed”. For “MLAMKLGIVGLGGWVTGAHIPALTDLGIKVDYCADIDEKRVKDLSQKTGCKGYLDYKEMLRNENPDLVLVAVPHSLHAIIALDAINNDANVYVEKPMATSFQEALTLVEASRKRNKILVVGHENRFNPAMLIAKKLIRGGEVGKIYHMRGFYIRQRGIPTSPTFIKKDLAKGGAVFDIGTHIIDLLLFLSDFPTPKSVTGKTYNAFSEDKTKFSAYPSPNLPNFKVEVEDFGSAFLKLGDEISAYVEVSWASYIKENKMEVVILGDNGGIHIDNGVLNFMRNIEDELFISSPLTQQKGSVYREVWRTVMESISKGFPEYPLCSAEQGAIGVAILESIYKSALEGREVKIDIPQWFLKQFQPRALEHHHHHH”, the protein production was “failed”. For “MLCIPATRDQTVSSHPAGTRQKKLFSQNDYLAPLPLPTGQQPVDSLNIIWRKNEVYIDIGCYSVGSAVMVIWPMMIMFISLAYGLNDIDLLWLGVIITGIPTLMLIHGLLRPTPPPVRFNRQRREVCVPRDNGEYWIVPWESVTAASTQCSSIGQAGRVTMGLLFIGFENPDAEASEDNKHFSMGFNCGGGETAMALWECMRSYMEIGPEVVPESRVGAMPYEKTQIGSIVTSLRKGDVFDVLHGLFFITILGTYLAEKLQNLKLSPPPDLEYPDIIEWSKSLPPEQWATPSPELLAALARQAATS”, the protein production was “failed”. With “MLCLTKKRHGLRIEIPPMPILPARPLKYLLASIIALTAGGPDIAVAQAPDSVISQPGTAPASSFRTDRLPGGDVKPSDGVGVFDRMGAKLPDLPPEKDYKGPIDEAYGAYQRGYYLTAMDKALPRAQLGDPAAQTLIGEILSQGLGVKKDVKGAAFWYGKAAEGGDPAAMFKYALMLMEGQGVPRDKVKADDYMRKAAEAGNPSAEFNWAQIVVADNPGEKGLKLALPFYEKSAEQGIADSQYAVAQIYATLKDLPEEKKRLAREWMARAARAGFDTAELDLGIWLVNGVGGPKDYVKGFEWLKLAANGGNVVAQNKLAHLYINAIGTPPNPVEAAKWYVLSRRAGLADPSLEDFYLGIEDDQQKAAIDAANKFRRR” the protein production was “failed”. For “MLCTYHAGQWFNNLLNFIDFIRLQFGKTANVLNLNDCLHIWLFSLEVRSLRDVVKMKLILSIMILSGCLLFILAGCARKNDYMPPAGATGEKIFKGACVQCHTPVNGKVMILRSEMANKEAIIERVTNGKGFGMPAFPNLTGDSVQNLAEYVLENSVTR”, the protein production was “failed”. In the case of “MLDAILSNYLYYPSILAFLFGVLMGAKYRHKIGNIFGYLILTVVIAYFLKAFPYYDLLPLSCSYLSAVIGIIIGNRLFGGKMI”, the protein production is reported as “failed”.
